# Test results taken from patent US8586357B2, “Markers of definitive endoderm” (ViaCyte, Inc., priority 2003, dated 2013).
# B1: Activin A: growth factor of the TGFβ superfamily, Nodal/Activin subgroup; definitive endoderm inducer (protein, UniProt P08476 311-426, looked up)
# Inhibin beta A chain: GLECDGKVNICCKKQFFVSFKDIGWNDWIIAPSGYHANYCEGECPSHIAGTSGSSLSFHSTVINHYRMRGHSPFANLKSCCVPTKLRPMSMLYYDDGQNIIKKDIQNMIVEECGCS
# How the values were obtained:
# Format in all cases: cell-based, human
# hESCs [1] = assay: Isolation of definitive endoderm cells by FACS using cell surface markers of Table 5 (Example 13); settings: 100, 50 or 25 ng/ml activin A; Example 13 written in present tense
# Method: Using methods, such as those described in the above Examples, hESCs are differentiated to produce definitive endoderm. In particular, to increase yield and purity of definitive endoderm in differentiating cell cultures, the serum concentration of the medium is controlled as follows: 0% FBS on day 1, 0.2% FBS on day 2 and 2.0% FBS on days 3-6. Differentiating cell populations are grown in the presence of 100 ng/ml, 50 ng/ml or 25 ng/ml activin A, whereas non-differentiating control populations are grown in the absence of activin A.
# An appropriate amount of labeled antibody that binds to one of the markers listed above is added to a sample of each culture and labeling proceeds on ice. Cells are washed by adding PBS and pelleted. A second wash with buffer is completed then cells are resuspended. Secondary antibody (FITC conjugated secondary antibody is added and allowed to label for about 30 minutes followed by two washes in buffer as above. Cells are resuspended and analyzed and sorted using a FACS. Cells are collected directly into RLT lysis buffer for subsequent isolation of total RNA for gene expression analysis by real-time quantitative PCR.
# hESCs [2] = assay: CXCR4+ cell number by flow cytometry (FACS); settings: 0, 10 or 100 ng/mL; 7 days; 0.5%-2% FBS; FIGS. 30A-C
# Method: hESCs were differentiated in RPMI media supplemented with 0.5%-2% FBS (increased from 0.5% to 1.0% to 2.0% over the first 3 days of differentiation) and either 0, 10, or 100 ng/mL of activin A. After 7 days of differentiation the cells were dissociated in PBS without Ca^2+/Mg^2+ containing 2% FBS and 2 mM (EDTA) for 5 minutes at room temperature. The cells were filtered through 35 um nylon filters, counted and pelleted. Pellets were resuspended in a small volume of 50% human serum/50% normal donkey serum and incubated for 2 minutes on ice to block non-specific antibody binding sites. To this, 1 uL of mouse anti-CXCR4 antibody (Abeam, cat# ab10403-100) was added per 50 uL (containing approximately 10^5 cells) and labeling proceeded for 45 minutes on ice. Cells were washed by adding 5 mL of PBS containing 2% human serum (buffer) and pelleted. A second wash with 5 mL of buffer was completed then cells were resuspended in 50 uL buffer per 10^5 cells. […] Cells were resuspended at 5×10^6 cells/mL in buffer and analyzed and sorted using a FACS Vantage (Beckton Dickenson) by the staff at the flow cytometry core facility (The Scripps Research Institute). Cells were collected directly into RLT lysis buffer (Qiagen) for subsequent isolation of total RNA for gene expression analysis by real-time quantitative PCR.
# hESCs [3] = assay: Immunocytochemistry: SOX17, AFP and TM antibody labeling of differentiating hESCs
# Description: As described in detail herein, the SOX17 antibody was utilized to specifically examine effects of various treatments and differentiation procedures aimed at the production of SOX17 positive definitive endoderm cells. Other antibodies reactive to AFP, SPARC and Thrombomodulin were also employed to rule out the production of visceral and parietal endoderm (extra-embryonic endoderm).
# As evidence that the SOX17 antibody is specific for human SOX17 protein and furthermore marks definitive endoderm, partially differentiated hESCs were co-labeled with SOX17 and AFP antibodies. […] However, AFP and SOX7 are not expressed in definitive endoderm cells at levels detectable by ICC, and thus, they be can employed as negative markers for bonifide definitive endoderm cells. It was shown that SOX17 antibody labels populations of cells that exist as discrete groupings of cells or are intermingled with AFP positive cells. […] Similarly, since parietal endoderm has also been reported to express SOX17, antibody co-labeling with SOX17 together with the parietal markers SPARC and/or Thrombomodulin (TM) can be used to identify the SOX17^+ cells which are parietal endoderm. As shown in FIGS. 6A-C, Thrombomodulin and SOX17 co-labelled parietal endoderm cells were produced by random differentiation of hES cells.
# With the SOX17 antibody and Q-PCR tools described above we have explored a number of procedures capable of efficiently programming ESCs to become SOX17^hi/AFP^lo/SPARC/TM^lo definitive endoderm cells. We applied a variety of differentiation protocols aimed at increasing the number and proliferative capacity of these cells as measured at the population level by Q-PCR for SOX17 gene expression and at the level of individual cells by antibody labeling of SOX17 protein.
# To determine the effect of TGFβ factor treatment at the individual cell level, a time course of TGFβ factor addition was examined using SOX17 antibody labeling. As previously shown in FIGS. 10A-F, there was a dramatic increase in the relative number of SOX17 labeled cells over time.
# In these experiments, hESCs were differentiated by growing in RPMI medium (Invitrogen, Carlsbad, Calif.; cat#61870-036) supplemented with 0.5%, 2.0% or 10% FBS and either with or without 100 ng/mL activin A for 6 days. In addition, a gradient of FBS ranging from 0.5% to 2.0% over the first three days of differentiation was also used in conjunction with 100 ng/mL of activin A. After the 6 days, replicate samples were collected from each culture condition and analyzed for relative gene expression by real-time quantitative PCR. The remaining cells were fixed for immunofluorescent detection of SOX17 protein.
molecule,measurement,setting,value
B1,number of cells positive for the Table 4 markers as dose is increased,hESCs [1],increase significantly
same,number of CXCR4+ cells as dose is increased,hESCs [2],increase dramatically
same,"difference in SOX17 antibody-labeled cell number, Activin A vs retinoic acid treated hESCs",hESCs [3]; FIG. 7B,10 fold
same,"SOX17+ cell number, dose response",hESCs [3]; FIG. 22,dose-dependent increase
same,frequency of SOX17+ cells,"hESCs [3]; high dose activin A, FBS at 10% (v/v), 6 days",much lower frequency
same,distribution of SOX17+ cells in the culture,"hESCs [3]; high dose activin A, low FBS concentration (0.5%-2.0%), 6 days",ubiquitously distributed
